# Results from publication PMC10899256.
# Molecular target: TBC1D23 co-precipitated with GFP-tagged LKB1 (Fig. 8a) (UniProt Q9NUY8)
# Assay: co-immunoprecipitation (GFP beads) from HEK293T cells, densitometry
# Conditions: parent: est. 1.0; read off a plot
# Chain of TBC1D23 co-precipitated with GFP-tagged LKB1 (Fig. 8a) (Q9NUY8 whole entry): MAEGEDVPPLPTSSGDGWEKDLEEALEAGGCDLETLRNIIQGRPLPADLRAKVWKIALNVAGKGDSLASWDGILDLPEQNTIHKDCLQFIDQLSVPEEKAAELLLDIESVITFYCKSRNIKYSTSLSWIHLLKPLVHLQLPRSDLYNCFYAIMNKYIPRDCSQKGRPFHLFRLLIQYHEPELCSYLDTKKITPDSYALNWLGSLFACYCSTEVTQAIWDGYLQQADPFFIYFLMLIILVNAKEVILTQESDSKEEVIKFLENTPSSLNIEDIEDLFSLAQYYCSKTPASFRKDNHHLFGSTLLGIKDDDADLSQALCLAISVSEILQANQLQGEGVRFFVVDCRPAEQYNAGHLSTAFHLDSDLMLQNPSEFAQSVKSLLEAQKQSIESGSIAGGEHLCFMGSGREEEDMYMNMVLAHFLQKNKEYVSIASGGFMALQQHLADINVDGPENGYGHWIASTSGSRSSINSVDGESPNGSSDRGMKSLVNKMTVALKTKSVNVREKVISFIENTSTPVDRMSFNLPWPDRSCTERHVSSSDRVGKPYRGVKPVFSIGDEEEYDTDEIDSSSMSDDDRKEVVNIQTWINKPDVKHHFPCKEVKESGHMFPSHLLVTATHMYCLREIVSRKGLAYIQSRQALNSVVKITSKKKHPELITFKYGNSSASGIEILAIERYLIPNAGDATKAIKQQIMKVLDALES
row,Substance,ratio to parent
1,GFP-LKB1 CRD F354A,0.75
2,GFP-LKB1 CRD F354L,0.82
